Data taken from US20060099671.

Test system: human plasminogen
Sequence (chain, as listed by the source): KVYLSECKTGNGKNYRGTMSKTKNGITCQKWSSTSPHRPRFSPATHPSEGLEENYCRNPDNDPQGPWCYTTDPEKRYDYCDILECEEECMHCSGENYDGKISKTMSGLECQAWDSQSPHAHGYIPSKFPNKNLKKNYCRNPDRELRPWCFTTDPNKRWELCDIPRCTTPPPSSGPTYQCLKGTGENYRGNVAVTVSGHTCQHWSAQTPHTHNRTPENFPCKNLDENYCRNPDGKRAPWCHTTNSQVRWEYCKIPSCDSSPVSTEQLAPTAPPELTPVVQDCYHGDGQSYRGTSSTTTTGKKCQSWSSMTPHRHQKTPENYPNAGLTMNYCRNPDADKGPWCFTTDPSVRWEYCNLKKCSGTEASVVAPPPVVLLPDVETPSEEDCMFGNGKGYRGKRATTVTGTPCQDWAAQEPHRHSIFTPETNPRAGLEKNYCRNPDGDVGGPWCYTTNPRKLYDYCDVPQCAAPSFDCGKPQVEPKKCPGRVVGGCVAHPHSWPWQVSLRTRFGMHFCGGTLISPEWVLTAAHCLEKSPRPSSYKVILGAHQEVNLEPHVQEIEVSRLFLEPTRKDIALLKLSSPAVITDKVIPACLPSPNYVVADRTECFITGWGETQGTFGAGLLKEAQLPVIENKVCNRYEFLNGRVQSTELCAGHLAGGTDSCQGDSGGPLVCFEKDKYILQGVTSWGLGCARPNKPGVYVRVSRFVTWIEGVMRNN

| Substance | production of angiostatin (western blot) | conversion of plasminogen to plasmin (Coomassie-stained reduced polyacrylamide gels) |
| --- | --- | --- |
| tissue-type plasminogen activator (t-PA) | incubation of plasminogen (0.2 µM) with u-PA (0.2 nM), t-PA (1.0 nM), or streptokinase (8.0 nM) with 100 µM N-acetyl-L-cysteine resulted in the production of angiostatin | – |
| urokinase-type plasminogen activator (u-PA) | incubation of plasminogen (0.2 µM) with u-PA (0.2 nM), t-PA (1.0 nM), or streptokinase (8.0 nM) with 100 µM N-acetyl-L-cysteine resulted in the production of angiostatin | The complete conversion of plasminogen to plasmin was confirmed |
